Measured values reported in a protein production outcome set (Wang et al. 2014).

assay: label from the status in PepcDB records
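Further: failed if final PepcDB status was selected cloned or expressed and not failed if soluble or beyond.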

Sequence | protein production
MRAGFFVGILGLAGAILQGANVTEAVGSELVLFPSGGGLSAIAAIVALLTAAVLVAVGIFTGYPIATAFTVTGAVVGVGLAMGGQPATAKYIEIVSLWVLTPFVGGGIAFGTAWSLRHEATTEERLVPLLGGLVGVILANIEFVLLAPGSEQASVARAVARAAGTPIFPSMVVVTLLIGVLAGGLLYLDIRADAAAGQRHFLLVMGGLVAFSAGGSQVGLALGPLVPLLGEGPTAAIPITGVLLFGGLGLLVGSWTGAPRMIKALAQDYSSLGPRRSIGALIPSFIIAQAAVFFGIPVSFNEIIVSAIVGSGAAAGGGEVSREKMGKTVLAWIGSLALAFALSYGLFWIIDAAL | failed
MRAGIVGSGIMGRLLAFVLHNAGWQVSLFDRSNESMNCSTAAAGLLTPFSELDKSILLISTLGQESIKNCWPRIIEDLPESVYFQQSGSLVLCHPGDQAEWIHFSRRILSQLNPSNSVFQKLSHENLIALEPELTKFETAYYFPNEAHIDCQTLMLSLKNYLDSVCIPHITNTPVLSLKPGEINTKEQRYHFDVVFDCRGLGAQNVFSDLRGIRGELIWLHAPGVQLHRPIRLLHPRYSLYLVPRPGNFYLIGASEIEAEDFSPVSVRTALELLTAVYYLHRNFDEARIIKTVTHCRPTLVNHLPRIKFADGLIAVNGLYRHGYLIAPALAEEILRGVTSNFRHLNYPELWENYCDLEHHHHHH | failed
MRAHTLSRQLREGNLFAEQCPSREVLKHVTSRWGVLILVALRDGTHRFSDLRRKMGGVSEKMLAQSLQALEQDGFLNRVSYPVVPPHVEYSLTPLGEQVSDKVAALADWIELNLPQVLAQRERLSDGG | not failed
MRAILILLDGLGDRASEILNNKTPLQFAKTPNLDRLAENGMCGLMTTYKEGIPLGTEVAHFLLWGYSLEEFPGRGVIEALGEDIEIEKNAIYLRASLGFVKKDEKGFLVIDRRTKDISREEIEKLVDSLPTCVDGYKFELFYSFDVHFILKIKERNGWISDKISDSDPFYKNRYVMKVKAIRELCKSEVEYSKAKDTARALNKYLLNVYKILQNHKINRKRRKLEKMPANFLLTKWASRYKRVESFKEKWGMNAVILAESSLFKGLAKFLGMDFIKIESFEEGIDLIPELDYDFIHLHTKETDEAAHTKNPLNKVKVIEKIDKLIGNLKLREDDLLIITADHSTPSVGNLIHSGESVPILFYGKNVRVDNVKEFNEISCSNGHLRIRGEELMHLILNYTDRALLYGLRSGDRLRYYIPKDDEIDLLEG | failed
MRAKITYAVTAAVLVVYFVLVGSRGVLLIQNGTLVTVTFGVAVLILPVIGVWFLWKNTQFVRKANALAAELDAEGGLPVDELRRTPGGRIDRDSADEVFARRKAETEDAPGDWRSWFRLAVAYHDARDTPRARKAMQRAIALHEGRPVEA | failed
MRAPLPELPAGTRFGAWAIDRLIGAGGMGQVYLGHRADGAYEREVAIKLVAADALDAQGRALFEFECRLLAQMVHPAIAQIHDVGTDAHGQPYLVMEYLRGEPITWWCDEHRLSLHARVLLMLRVGEAVQHAHQKGVIHRDLKPSNVLVSEIDGRPMPGVIDFGIAVDATNPGMTYAHDRGTPGYMSPEQARGAQDVDARSDIYALGAMFYELSCGLAPVAGRDGVPQPPSQRVAAVPADARARICAARATTYQKLHEQLRDGLDAIVLRALEPQPGARYASVSALLDDLHRWLDGYPPRALQASRWLRLRKFTQRHRSGVAAAGLAAIAVVAGLGATLWSLQQAARDAQRAQVTGDFMSSVLSSVDPGVARDLDKTLMLRVMQQASQRAARELADQPDARTQVELTLGRTLIALANFPQAVEHLRIAQTLAQQTAGAGSLPALKAASMLGQALTGDGKPGDAERVLRQGIAQAARGDAQQQAMGNELRAWLAWALREQGRMRDALAESRHAYVAALANASSSADQRIDAGNSYAAMLADNGQLVPAIALQRSLLRERMAMRGPEHPLVVSMRNSLAVFLLMQRDFAGAEAELVPLLRVTRTLYGESAADTLMIEGNLAGALRQQGKVAEAGPYYRRALERARAAFGNDAPVTIAYRSNHAFWLLDDGQVDASLAEQRAALTASERVLGRAHPQTAEILRGMSEAERRLGQTVAARDHARQALQILTGIFGDADAPLRAARQTLASATPPADSREAEATTAVAQR | failed
MRARLYAAFRQVGEDLFAQGLISATAGNFSVRTKGGFLITKSGVQKARLTPEDLLEVPLEGPIPEGASVESVVHREVYRRTGARALVHAHPRVAVALSFHLSRLRPLDLEGQHYLKEVPVLAPKTVSATEEAALSVAEALREHRACLLRGHGAFAVGLKEAPEEALLEAYGLMTTLEESAQILLYHRLWQGAGPALGGGE | not failed
MRARPYPTSTYFVSTADGRLPAMSQPIAAPFRQQLLDLVARIPPGRVMTYGQLALLAGQPGAARQAGAVMHSLKDSDLPWQRVINAQGRVSTYKVGLGEVQEGLLRAEGIEFDDAGRCDLSRYQWWPDENAANIAQRLL | failed
MRASHETTTSMGHDHNHAPSEIRHETPLWWALGLTATFLLAEIIGAFVTNSLALLSDAAHMATDTVGLMIALVAVRLSRRPADARRTYGYVRLEALGALANGALLFAVGGYILWEAAQRVRAPQDIAYGGMLLIAGFGLVINLIAMKLLHAGSGESLNVKGAYLEVWSDMLGSMAVIIGALLIHWTSWQWIDPVLAVLIGLWVLPRTWVLLREAINVLLEGVPKGIDLAQVQQALTSHPGVEDVHDLHVWALASSTPALTAHIVVNEATDRDRLRDALATLLHDRFDIVHVTLQVESGDCGTEPCGTPKPAADAGHDAHHGHSHAHGHSHH | failed
MRAVIPYKKAGAKSRLSPVLSLQEREEFVELMLNQVISSLKGAGIEQVDILSPSVYGLEEMTEARVLLDEKDLNEALNRYLKEAEEPVLIVMADLPLLSPEHIKEISSTEKDVCIVPGKGGGTNALFIKNPSKYRVKYYGSSFLTHCSIATDSGQDFEIYDSFMAGTDIDEPEDLVELLIHGKGAAKDYIESKFRLEVKKGRVGLVPL | not failed
MRAVLTWRDKAEHCINDIAFKPDGTQLILAAGSRLLVYDTSDGTLLQPLKGHKDTVYCVAYAKDGLWSPEQKSVSKHKSSSKIICCSWTNDGQYLALGMFNGIISIRNKNGEEKVKIERPGGSLSPIWSICWNPSREERNDILAVADWGQKVSFYQLSGKQIGKDRALNFDPCCISYFTKGEYILLGGSDKQVSLFTKDGVRLGTVGEQNSWVWTCQAKPDSNYVVVGCQDGTISFYQLIFSTVHGLYKDRYAYRDSMTDVIVQHLITEQKVRIKCKELVKKIAIYRNRLAIQLPEKILIYELYSEDLSDMHYRVKEKIIKKFECNLLVVCANHIILCQEKRLQCLSFSGVKEREWQMESLIRYIKVIGGPPGREGLLVGLKNGQILKIFVDNLFAIVLLKQATAVRCLDMSASRKKLAVVDENDTCLVYDIDTKELLFQEPNANSVAWNTQCEDMLCFSGGGYLNIKASTFPVHRQKLQGFVVGYNGSKIFCLHVFSISAVEVPQSAPMYQYLDRKLFKEAYQIACLGVTDTDWRELAMEALEGLDFETAKKAFIRVQDLRYLELISSIEERKKRGETNNDLFLADVFSYQGKFHEAAKLYKRSGHENLALEMYTDLCMFEYAKDFLGSGDPKETKMLITKQADWARNIKEPKAAVEMYISAGEHVKAIEICGDHGWVDMLIDIARKLDKAEREPLLLCATYLKKLDSPGYAAETYLKMGDLKSLVQLHVETQRWDEAFALGEKHPEFKDDIYMPYAQWLAENDRFEEAQKAFHKAGRQREAVQVLEQLTNNAVAESRFNDAAYYYWMLSMQCLDIAQADPAQKDTMLGKFYHFQRLAELYHGYHAIHRHTEDPFSVHRPETLFNISRFLLHSLPKDTPSGISKVKILFTLAKQSKALGAYRLARHAYDKLRGLYIPARFQKSIELGTLTIRAKPFHDSEELVPLCYRCSTNNPLLNNLGNVCINCRQPFIFSASSYDVLHLVEFYLEEGITDEEAISLIDLEVLRPKRDDRQLEIANNSSQILRLVETKDSIGDEDPFTAKLSFEQGGSEFVPVVVSRLVLRSMSRRDVLIKRWPPPLRWQYFRSLLPDASITMCPSCFQMFHSEDYELLVLQHGCCPYCRRCKDDPGP | failed
